{"source": "paper PMC10742149", "origin": "cited, not measured here", "molecular_target": "SIRP-α (Homo sapiens) (UniProt P78324)", "sequence (P78324 31-373)": "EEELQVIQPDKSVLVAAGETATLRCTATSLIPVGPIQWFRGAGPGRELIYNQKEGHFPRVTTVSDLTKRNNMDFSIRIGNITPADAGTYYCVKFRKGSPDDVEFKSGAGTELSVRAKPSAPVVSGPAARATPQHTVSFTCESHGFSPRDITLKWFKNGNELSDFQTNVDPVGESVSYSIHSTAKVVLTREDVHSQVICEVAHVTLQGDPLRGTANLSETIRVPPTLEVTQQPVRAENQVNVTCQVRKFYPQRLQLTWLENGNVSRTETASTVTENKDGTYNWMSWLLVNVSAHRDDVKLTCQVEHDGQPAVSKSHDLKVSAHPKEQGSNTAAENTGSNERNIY"}
{"substance": "CD47 (from UniProt Q08722)", "values": [{"measurement": "Kd", "result": 2000, "unit": "nM"}]}
